The record followed here is paper PMC11076491, “Allosteric regulation by c-di-AMP modulates a complete N-acetylglucosamine signaling cascade in Saccharopolyspora erythraea” (Nature Communications, 2024).

Series [1] has as its system DasR (Saccharopolyspora erythraea). In words: BLI. The note with it: EMSA: 10 mM Tris-HCl pH 8.0, 25 mM MgCl2, 50 mM NaCl, 1 mM DTT, 1 mM EDTA, 0.01% NP-40, 50 ug/mL poly(dIdC), 10% glycerol, 18 C, 30 min, BLI: 10 mM HEPES pH …. For orientation: A gel shift assay detects complexes by their altered migration in electrophoresis.
Series [2] concerns the target T1, DasR (His-DasR) of S. erythraea (Saccharopolyspora erythraea, UniProt A4F723).
T1 construct: gene SACE_0500; full-length, His-tagged, expressed in E. coli BL21(DE3), Ni-NTA purified; predominantly dimer (c-di-AMP promotes dimerization)
T1 sequence (A4F723 1-251): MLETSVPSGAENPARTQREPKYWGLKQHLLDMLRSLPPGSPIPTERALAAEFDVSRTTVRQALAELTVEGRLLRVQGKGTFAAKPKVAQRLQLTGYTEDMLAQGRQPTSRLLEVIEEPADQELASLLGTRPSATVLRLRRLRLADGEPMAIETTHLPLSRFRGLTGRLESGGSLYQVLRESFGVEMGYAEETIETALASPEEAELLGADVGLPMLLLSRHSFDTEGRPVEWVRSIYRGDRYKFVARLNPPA
In words: isothermal titration calorimetry. It is filed as binding.

In a further series the target is T2, ScoDasR (DasR^Sco) (Streptomyces coelicolor, UniProt Q9K492).
T2 construct: full-length, His-tagged, expressed in E. coli BL21(DE3), Ni-NTA purified; GntR family, predominantly dimer
T2 sequence (Q9K492 1-254): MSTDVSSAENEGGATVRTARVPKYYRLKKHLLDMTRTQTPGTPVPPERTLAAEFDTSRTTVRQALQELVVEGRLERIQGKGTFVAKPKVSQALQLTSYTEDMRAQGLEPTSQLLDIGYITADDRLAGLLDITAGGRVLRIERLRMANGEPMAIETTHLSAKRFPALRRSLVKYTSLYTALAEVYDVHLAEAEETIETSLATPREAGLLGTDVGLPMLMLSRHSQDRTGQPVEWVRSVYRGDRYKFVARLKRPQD
In words: isothermal titration calorimetry. It is filed as binding.

The term Kd denotes the constant that tells how readily two partners part at equilibrium. Read a low Kd as higher affinity. nagA promoter: the Kd in series [1] (100 uM c-di-AMP) stood at 0.44 µM; in series [1] (no c-di-AMP), 19 µM.

In the case of `Nc1ncnc2c1ncn2[C@@H]1O[C@@H]2COP(=O)(O)O[C@H]3[C@@H](O)[C@H](n4cnc5c(N)ncnc54)O[C@@H]3COP(=O)(O)O[C@H]2[C@H]1O` [c-di-AMP], the equilibrium dissociation constant (Kd) in series [2] was 26.8 µM; on ScoDasR (DasR^Sco), 23 µM.
